# Reference: patent publication US10941182 (Amgen, dated 2021)
# Starred links: 1 amine or outer side, 2 acyl side, 3 side chain; linkers in the order of their positions; H or OH if unused. Non-standard residues stand in square brackets, D forms with d. Primed or numbered codes have the meaning given here. *: point of attachment. AC4Abu = α-carboxy-4-aminobutyric acid, O=C(C(CCN[*:1])C(=O)[*:3])[*:2]; Oic = O=C(O)[C@@H]1C[C@@H]2CCCC[C@@H]2N1; Phe(4-Cl) = N[C@@H](Cc1ccc(Cl)cc1)C(=O)O; dPhe(4-Cl) = N[C@H](Cc1ccc(Cl)cc1)C(=O)O; γGlu = O=C(O)[C@H](CCC(=O)[*:2])N[*:1]; NMeR = CN[C@@H](CCCNC(=N)N)C(=O)O; Tridecanoyl = CCCCCCCCCCCCC(=O)*; Cha = N[C@@H](CC1CCCCC1)C(=O)O; Tle = CC(C)(C)[C@H](N)C(=O)O; αMeP = C[C@@]1(C(=O)O)CCCN1; β3hP = O=C(O)C[C@@H]1CCCN1; Nle = CCCC[C@H](N)C(=O)O; Pip′ = not defined here; Deg = CCC(N)(CC)C(=O)O; AEEA = NCCOCCOCC(=O)O; Aib = CC(C)(N)C(=O)O
# T1: human APJ receptor (human, UniProt P35414 1-380)
# T1 sequence (looked up): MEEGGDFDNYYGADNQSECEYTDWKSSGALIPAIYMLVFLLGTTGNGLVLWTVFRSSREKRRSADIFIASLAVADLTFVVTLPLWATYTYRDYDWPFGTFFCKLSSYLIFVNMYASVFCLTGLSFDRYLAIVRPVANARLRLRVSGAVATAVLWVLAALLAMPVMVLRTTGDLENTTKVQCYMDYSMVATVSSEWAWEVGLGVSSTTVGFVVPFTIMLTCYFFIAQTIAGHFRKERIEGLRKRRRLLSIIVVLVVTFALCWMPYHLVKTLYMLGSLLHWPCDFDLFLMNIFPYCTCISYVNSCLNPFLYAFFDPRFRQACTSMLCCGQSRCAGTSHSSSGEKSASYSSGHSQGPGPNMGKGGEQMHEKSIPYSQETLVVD
# T2: rat APJ receptor (rat, UniProt Q9JHG3 1-377)
# T2 sequence (looked up): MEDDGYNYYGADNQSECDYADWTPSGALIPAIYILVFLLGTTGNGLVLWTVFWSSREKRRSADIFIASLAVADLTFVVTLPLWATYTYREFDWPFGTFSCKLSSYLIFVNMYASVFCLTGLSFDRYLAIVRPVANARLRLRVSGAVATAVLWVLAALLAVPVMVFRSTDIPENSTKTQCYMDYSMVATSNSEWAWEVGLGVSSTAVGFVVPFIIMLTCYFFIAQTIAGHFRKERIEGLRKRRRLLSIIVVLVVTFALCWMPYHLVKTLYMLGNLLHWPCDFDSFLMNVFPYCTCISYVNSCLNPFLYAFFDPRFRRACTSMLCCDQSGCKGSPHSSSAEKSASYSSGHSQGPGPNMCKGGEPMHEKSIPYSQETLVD
# B1: Apelin polypeptide SEQ ID NO: 413 (peptide)
# peptide: Tridecanoyl-[AC4Abu][AEEA][AEEA]QRP[NMeR][Cha]SHKG[Oic][Tle]P[Phe(4-Cl)]-OH
# SMILES: CCCCCCCCCCCCC(=O)NCCC(C(=O)O)C(=O)NCCOCCOCC(=O)NCCOCCOCC(=O)N[C@@H](CCC(N)=O)C(=O)N[C@@H](CCCNC(=N)N)C(=O)N1CCC[C@H]1C(=O)N(C)[C@@H](CCCNC(=N)N)C(=O)N[C@@H](CC1CCCCC1)C(=O)N[C@@H](CO)C(=O)N[C@@H](Cc1c[nH]cn1)C(=O)N[C@@H](CCCCN)C(=O)NCC(=O)N1[C@H](C(=O)N[C@H](C(=O)N2CCC[C@H]2C(=O)N[C@@H](Cc2ccc(Cl)cc2)C(=O)O)C(C)(C)C)C[C@@H]2CCCC[C@@H]21
# B2: Apelin polypeptide SEQ ID NO: 410 (peptide)
# peptide: Tridecanoyl-[AC4Abu][AEEA][AEEA]QRP[NMeR][Cha]SHKG[Oic][Nle][dPhe(4-Cl)]-OH
# SMILES: CCCCCCCCCCCCC(=O)NCCC(C(=O)O)C(=O)NCCOCCOCC(=O)NCCOCCOCC(=O)N[C@@H](CCC(N)=O)C(=O)N[C@@H](CCCNC(=N)N)C(=O)N1CCC[C@H]1C(=O)N(C)[C@@H](CCCNC(=N)N)C(=O)N[C@@H](CC1CCCCC1)C(=O)N[C@@H](CO)C(=O)N[C@@H](Cc1c[nH]cn1)C(=O)N[C@@H](CCCCN)C(=O)NCC(=O)N1[C@H](C(=O)N[C@@H](CCCC)C(=O)N[C@H](Cc2ccc(Cl)cc2)C(=O)O)C[C@@H]2CCCC[C@@H]21
# B3: Apelin polypeptide SEQ ID NO: 541 (peptide)
# peptide: Tridecanoyl-[γGlu][AEEA][AEEA][dQ]RP[NMeR][Cha]SHKG[Oic][Nle][αMeP][Phe(4-Cl)]-OH
# SMILES: CCCCCCCCCCCCC(=O)N[C@@H](CCC(=O)NCCOCCOCC(=O)NCCOCCOCC(=O)N[C@H](CCC(N)=O)C(=O)N[C@@H](CCCNC(=N)N)C(=O)N1CCC[C@H]1C(=O)N(C)[C@@H](CCCNC(=N)N)C(=O)N[C@@H](CC1CCCCC1)C(=O)N[C@@H](CO)C(=O)N[C@@H](Cc1c[nH]cn1)C(=O)N[C@@H](CCCCN)C(=O)NCC(=O)N1[C@H](C(=O)N[C@@H](CCCC)C(=O)N2CCC[C@@]2(C)C(=O)N[C@@H](Cc2ccc(Cl)cc2)C(=O)O)C[C@@H]2CCCC[C@@H]21)C(=O)O
# B4: Apelin polypeptide SEQ ID NO: 445 (peptide)
# peptide: Tridecanoyl-[γGlu][AEEA][AEEA]QRP[NMeR][Cha]SHKG[Oic][Nle][Pip′][Phe(4-Cl)]-OH
# B5: Apelin polypeptide SEQ ID NO: 487 (peptide)
# peptide: Tridecanoyl-[γGlu][AEEA][AEEA]QRP[NMeR][Cha]SHKG[Oic][Nle][β3hP][Phe(4-Cl)]-OH
# SMILES: CCCCCCCCCCCCC(=O)N[C@@H](CCC(=O)NCCOCCOCC(=O)NCCOCCOCC(=O)N[C@@H](CCC(N)=O)C(=O)N[C@@H](CCCNC(=N)N)C(=O)N1CCC[C@H]1C(=O)N(C)[C@@H](CCCNC(=N)N)C(=O)N[C@@H](CC1CCCCC1)C(=O)N[C@@H](CO)C(=O)N[C@@H](Cc1c[nH]cn1)C(=O)N[C@@H](CCCCN)C(=O)NCC(=O)N1[C@H](C(=O)N[C@@H](CCCC)C(=O)N2CCC[C@H]2CC(=O)N[C@@H](Cc2ccc(Cl)cc2)C(=O)O)C[C@@H]2CCCC[C@@H]21)C(=O)O
# B6: Apelin polypeptide SEQ ID NO: 549 (peptide)
# peptide: Tridecanoyl-[γGlu][AEEA][AEEA][dQ]RP[NMeR][Cha]SHKG[Oic][Nle][Deg][Phe(4-Cl)]-OH
# SMILES: CCCCCCCCCCCCC(=O)N[C@@H](CCC(=O)NCCOCCOCC(=O)NCCOCCOCC(=O)N[C@H](CCC(N)=O)C(=O)N[C@@H](CCCNC(=N)N)C(=O)N1CCC[C@H]1C(=O)N(C)[C@@H](CCCNC(=N)N)C(=O)N[C@@H](CC1CCCCC1)C(=O)N[C@@H](CO)C(=O)N[C@@H](Cc1c[nH]cn1)C(=O)N[C@@H](CCCCN)C(=O)NCC(=O)N1[C@H](C(=O)N[C@@H](CCCC)C(=O)NC(CC)(CC)C(=O)N[C@@H](Cc2ccc(Cl)cc2)C(=O)O)C[C@@H]2CCCC[C@@H]21)C(=O)O
# B7: Apelin polypeptide SEQ ID NO: 412 (peptide)
# peptide: Tridecanoyl-[AC4Abu][AEEA][AEEA]QRP[NMeR][Cha]SHKG[Oic][Nle][αMeP][Phe(4-Cl)]-OH
# SMILES: CCCCCCCCCCCCC(=O)NCCC(C(=O)O)C(=O)NCCOCCOCC(=O)NCCOCCOCC(=O)N[C@@H](CCC(N)=O)C(=O)N[C@@H](CCCNC(=N)N)C(=O)N1CCC[C@H]1C(=O)N(C)[C@@H](CCCNC(=N)N)C(=O)N[C@@H](CC1CCCCC1)C(=O)N[C@@H](CO)C(=O)N[C@@H](Cc1c[nH]cn1)C(=O)N[C@@H](CCCCN)C(=O)NCC(=O)N1[C@H](C(=O)N[C@@H](CCCC)C(=O)N2CCC[C@@]2(C)C(=O)N[C@@H](Cc2ccc(Cl)cc2)C(=O)O)C[C@@H]2CCCC[C@@H]21
# B8: Apelin polypeptide SEQ ID NO: 499 (peptide)
# peptide: Tridecanoyl-[γGlu][AEEA][AEEA][dQ]RP[NMeR][Cha]SHKG[Pip′][Nle][Aib][Phe(4-Cl)]-OH
# B9: Apelin polypeptide SEQ ID NO: 411 (peptide)
# peptide: Tridecanoyl-[AC4Abu][AEEA][AEEA]QRP[NMeR][Cha]SHKG[Oic][Nle][Deg][Phe(4-Cl)]-OH
# SMILES: CCCCCCCCCCCCC(=O)NCCC(C(=O)O)C(=O)NCCOCCOCC(=O)NCCOCCOCC(=O)N[C@@H](CCC(N)=O)C(=O)N[C@@H](CCCNC(=N)N)C(=O)N1CCC[C@H]1C(=O)N(C)[C@@H](CCCNC(=N)N)C(=O)N[C@@H](CC1CCCCC1)C(=O)N[C@@H](CO)C(=O)N[C@@H](Cc1c[nH]cn1)C(=O)N[C@@H](CCCCN)C(=O)NCC(=O)N1[C@H](C(=O)N[C@@H](CCCC)C(=O)NC(CC)(CC)C(=O)N[C@@H](Cc2ccc(Cl)cc2)C(=O)O)C[C@@H]2CCCC[C@@H]21
# B10: Apelin polypeptide SEQ ID NO: 542 (peptide)
# peptide: Tridecanoyl-[γGlu][AEEA][AEEA][dQ]RP[NMeR][Cha]SHKG[Oic][Nle][β3hP][Phe(4-Cl)]-OH
# SMILES: CCCCCCCCCCCCC(=O)N[C@@H](CCC(=O)NCCOCCOCC(=O)NCCOCCOCC(=O)N[C@H](CCC(N)=O)C(=O)N[C@@H](CCCNC(=N)N)C(=O)N1CCC[C@H]1C(=O)N(C)[C@@H](CCCNC(=N)N)C(=O)N[C@@H](CC1CCCCC1)C(=O)N[C@@H](CO)C(=O)N[C@@H](Cc1c[nH]cn1)C(=O)N[C@@H](CCCCN)C(=O)NCC(=O)N1[C@H](C(=O)N[C@@H](CCCC)C(=O)N2CCC[C@H]2CC(=O)N[C@@H](Cc2ccc(Cl)cc2)C(=O)O)C[C@@H]2CCCC[C@@H]21)C(=O)O
# Molecular target: T1, human APJ receptor
# Test: cell-based or functional assay
row,Binder,EC50 Human APJ Receptor (GTPγS assay) [nM]
1,B1,1.53
2,B2,2.47
3,B3,0.938
4,B4,4.29
5,B5,1.83
6,B6,1.2
7,B7,0.614
8,B8,0.0236
9,B9,2.1
10,B10,5.19

# Molecular target: T2, rat APJ receptor
# Test: cell-based or functional assay
row,Binder,EC50 Rat APJ Receptor (GTPγS assay) [nM]
1,B1,1.54
2,B2,2.68
3,B3,1.98
4,B4,4.71
5,B5,8.19
6,B6,4
7,B7,0.436
8,B8,0.0852
9,B9,2.94
10,B10,16.1
